Laboratory results taken from the domain aggregation screens of Martell et al. (2025).

Assay: soluble fraction after stress (log2 fold change); higher = more stays soluble; pooled small domains, quantitative proteomics
Details: stress: pH 4
In short: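 Values are on a log2 scale, where higher means more of the domain stayed soluble after pH 4 stress. They are fold changes in the soluble amount of each domain from pooled custom libraries, measured by high-throughput quantitative proteomics. The fold change is taken to reflect aggregation propensity.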

Row | Sequence | soluble fraction (log2)
1 | HMKAETILAIPENQPERLFPNNEDEARKIYRDLAREWHTDRNKSPKAQDVFSHLSKLYDIVIDRIKNKTWT | -0.0463
2 | HMKAGRNTLARQMAILEVLQKDGRALVDDLAARFETTPQTIRKDLSALAEVNQISRFHGGAALVG | -0.279
3 | HMKAKTYTVQYIDEGKIIKEEELEEGSIINAPEVTKEGHTFIGWYEGEEKYDVYEPITRNLILESKNEIN | -0.989
4 | HMKALEGMRTVFTLADLATEPVTVEITVLEAFKYTTTLEIVQRPVLREWMTNPSMLIRVYHDASTAE | -0.138
5 | HMKAMIIVMKPGADMATISKVLKTIETNGFKPHLSKGEETTVIGVIGDERKLNPDIFSTLEGVERIVPVA | 0.279
6 | HMKASTRELLDFVLSQRGVSTASVAKALGISVQNASTRLKKLSNEGLIIRSEASSLTGGIEFLYS | 0.0289
7 | HMKDASEFLGAKGKTITPLRPTGAAVINGEKVDVLAEGEFIPKNAEIVVIKVEGSKIIVRNANN | -0.0474
8 | HMKDDLTWSEGLMPNVVGMGLRDAMFMLENSGLRVNYSGRGKVTRQSPQPGVRIKRGATVAIELRL | 0.0273
9 | HMKDEHYLYIKARVDNGDYPHLSELKSAEEIELVMPKLLQDGIVEFNKETGEYTIGEDVKAEIERL | -1.02
10 | HMKDESYALGTRLLSHALGKTKLEDLAQEKIDEVVQQSGNKTLEQLLTNIGLGNALSIGIARQLT | ≥ 0.43
11 | HMKDGAKYFQLFGLLKNEINRGIYQSGQKIPGENELAEKYGMSRQTVRQALSLLEQESLIERRQGSGTYVR | 0.185
12 | HMKDGMRVYITYHDSEEEPEKPIGDGTTKGWHTNSTASVVWISQKVAESADLGIWGDPIRIKGEA | -0.217
13 | HMKDIIVDPQGQYNHPGVPTRIPSSDITMKGVGYPVLGIADNGQKQMMQPGQDYKFPGAKYVDEYPQM | 0.0501
14 | HMKDIIVLGAIQAGIKKFDKIQKMTQIEPEELNSILEQLENRGFIQVAEKSGLLGKKIEILVTEKGSNEVD | -0.484
15 | HMKDITAVISKKKGRDYYYIIVSYHLSNGKRVQKWIKTEFSVNGNNKRKLEQKRIEILQEWQNKLV | -0.0977
16 | HMKDITMPNVYGLTLEMAEQTLKQSELSIFKAMKINSDTVEEGKVIYTDPKANSIVSGDQEITIYVSDGP | 0.22
17 | HMKDKSEKTKKLIFEAAFKIIREEGFSELSANKIAQVASVSKGVIFHHFSQMDDLYLFMLDTL | 0.192
18 | HMKDLTAIKGVGEFFAKKLSQAGYQSITNLTDVNAKRLQADTGIPLPIAARIIKEAQSLIAET | -0.00834
19 | HMKDMWNRIRRARLSAGLSQAALAKETGVRRSAVTQWEKEGGTSPSVANLARIAVVTQVHFEWLATGRGPG | -0.216
20 | HMKDNIRSILEDIPNIGPGRRRALLKHFGSIEAIRRASLEDLIKVDGMNRNAALSIMEYFGM | -0.24
21 | HMKDPSLEHIDALAGKPFQAFPGQDHRAHITAHLNFMSTNMVRNNPSIMAAIQKNILEHISLMAQEQIQL | -0.683
22 | HMKEETYHYTVRYVTDGGDILASYEGKATKDSVFFPEVKTFDGYTAVRGEEPMFHLVSDHAVFQIVYQKNG | 0.204
23 | HMKEFEINSQWKPSLEVYDILSVKGGISRNFIEDSIPEFVLYWRGRGDKSNTWDSKFVQHVKRQWNFYSGL | -2.41

Row | Sequence | soluble fraction (log2)
24 | HMKEGGREEMSEIVERYGDERALMANITSVQNLMNNMKWTLDQALDALGIKGKERTLITQQLQ | -0.145
25 | HMKEIATKSELTYFIQRLLDLLEETNFFNPEERKKAMINHIEAIFRRNNLTLQELNMLHGIITSITR | -1.38
26 | HMKEIGGGPASKFIYYLIKTKHPIEQGDLIGITHLPRRTVQSAIEDLKNQGFIIERNSLDDSRRKVYYPVK | 0.22
27 | HMKEIKRLVELSPGRYFIEGATNIRVFGINGSLLLDTKGETVDLSDLAKGVYLLKTDGVTYKVL | -0.216
28 | HMKEIYIDRGKEALEKELRKRKIPFQEFLSKENTNLLFDTLKIPSHDLEELYLEIGNGKHAASTVVNTVY | -0.0339
29 | HMKEKQLMTLDDDLYAFLLKHPGIIQKDIYNHFPYDIKGVIADTLYAWDKTGKIKRTKSGNSYIIYT | -0.141
30 | HMKELAADFSRRIINARTSKGWSQADLGQRMAETINVIKSAESGKPPTDAVVKKFETVLGVILM | 0.22
31 | HMKELLDRIFLHETMRRVSQDATITFSKKVYEVPQKFIGRQVTVQYDPEDLSRVYVKDLNFPEPVMVYPVQ | 0.0825
32 | HMKELTPEQLQHNWNNLRQFIDVNFSGDRLGGLNKMYDYFEERMMFAPASGKQHYHNAFAGGYVEHVMHV | 0.0505
33 | HMKEPGFAPPVRALAAAPITVLAQVAGTNPGEIRARLRAAGYPVASDQQSVQSLVGGDLKAQIGVLNRILA | -0.0568
34 | HMKEQIKVPDLSNKTPEEAKKELNTLGLGARKGGEESSDTVEEGLITRQEPAAGEQVDKNTQILFYVSTGK | 0.0545
35 | HMKEQLLLGFKVRSLRGIDLGFVKFIEGSAFQSFLKTDLTIIPNVPNYVKKIDNVKKIILVDWESD | -1.54
36 | HMKEQYTELDWDKVQVNDKVMIKDLNQQVTILSLPDKNNALYIQMGMIKTKVKKEKLAVYNPQLA | -0.103
37 | HMKERVSWDERLERFAKHITENESLPYPSSKEYAWFEENKALYDAGELEPVRAQSFAFLLKIMRRMNL | 0.0752
38 | HMKETIIPELLQNELDKNSELNDKFNTFSPYKQREFIEYIITAKQEKTQISRLQKVILMILEGRGLNN | -0.491
39 | HMKEVELENMIKAKGFKDAAVLVDERSVTVIVESERLAAGDSASIKELVSRGTGVDPQNVVII | -0.295
40 | HMKEYPEVITTSRLNVRTGPGTGYQRLGTLDQNLRVLVLTRQQGWAQIRGMLNGETVIGWVNDYYLQAID | -0.259
41 | HMKFINISIDKSGNLFINKKSIKFQDLKYNVVNLVDESKNLVVLNADENISHGYVISVLDVLRSIDGLKLA | -0.802
42 | HMKFNEKQNEVRIAIMNFIIDNKRPFHMKQDGYDALEGITLSGRHEFQDILDVLHSRDGFSADEEGNINF | -1.69
43 | HMKFPIITAKQDSDGKFYWAQTTDKGKTYTFILDGDGKKFPIGGTMPDVKINENGYWSVNGSSTGVLANDL | -0.295
44 | HMKFSVEEQFKKSFPKNTYETFSETSLKGVYEVYNGKQVYYYLPVNDVLLLGSIVTKDGKNLTQESNSKK | -0.0849
45 | HMKGIVFTEFLDLVEERFGLEMVDAIISQSKLESKGVYTSIGTYSFSELLQLLQNLKIQTGISIDNLLLI | -1.51
46 | HMKGKIYFFEEGVDRVGGVERVISTLANEFSKKYKVNVISFYKTRKETFFKYNSDIDITYLSK | -0.264

Row | Sequence | soluble fraction (log2)
47 | HMKGLDRATNKALLLKHIIDNGSTGTRFSELRQVLPSLTRGSISSLLIELRSEGKIHSIGVTRNARWYPTE | -0.309
48 | HMKGLKERLLYFIEYKGLPVQMFEKIVGLSNAAVSKMGDNTRRSTIDKISKSFPELDVNWLLTGQGEMLSY | 0.296
49 | HMKGPAFAKIDLTQLPAGLTSFLNTNAAGFKLDYAVAITKDSVIIEYHVGVTIGTAKKEFHLDPNFQLLP | -0.1
50 | HMKGPLKDLGPDPVTGKSILVKDGKFGTYVTDGETNATLRRGDIVELLTLERGMELLAEKRARATQ | -0.0516
51 | HMKGTVKFFNESKGFGFITEEGTNKEHFVHVSGLVDEIRENDEVEFDLQDGRKGLNAVNVRV | 0.0618
52 | HMKGVENLSDIDIQKALNNARANLSKNKAKLEQAGDDEKKKASALAMIQKWETTKKAIEEEIEARKKKSLN | -0.088
53 | HMKHAIKEKIRNEYVHGYLNEEGYRVMPTLDELIRKYEVPASSTYRASSKEGWKKQKEAFLEHLRGEIDA | -0.0601
54 | HMKHFFIIAGGKIEDAFAIEVLKGFAEKTVIAADSGMEFLRRNEIVPQVIIGDFDSVSKETLEWFQKK | 0.22
55 | HMKHKGILTTWNDDRGFGFITPKEGKEPVFVHISAFARGQGRPVLNASLTYRLVRDDQQRPRAEAVRL | 0.189
56 | HMKHKHHIIPKHKGGTDHPDNLIELTVEQHAKAHWVEFMLDGREEDYWAWKGLEGVASKKDIIYALSKR | -0.313
57 | HMKHSEAIELGKRMLSQALQDVSLVLKKIPEERLQAVAAELNLKTPDELFEKIGLGERLAALVARRLLP | 0.0472
58 | HMKHTQTDEGELLSTLRTLFPNSSSSSLRKMLTQGRILVNQEVVHRAKHALQAGDEIEVLARQ | 0.0825
59 | HMKHVDLDNNERYIYGIIGSTKIHVDEVVEKSGMETKHVMAILTNLELKEAIKGIPGGFYLR | -1.19
60 | HMKHVENLSDEKTIQAIQENPYMQYLLGLSKFTEKPVFVPELFVLIRKRLDQDFFNMLTLILAEADG | -0.778
61 | HMKHYIDFIAEQLKTLTAIPSPSGYTKNATDYLMKLLQDMGYEPKLSRKGNVFVTLGGDGEPLVLAAHVD | -0.112
62 | HMKIDELKAYLFQSVRVKNPHTQEYDTLKIIELNYYQDKIKAKLKNSDDDYITEMIFESIKHLQNFLG | -1.98
63 | HMKIEEIAYSTFISMLDKGEVSKVELKDNLIYIETKADDKTIYTTGRMEDPDLTNRLIEAGVDFTEIE | -0.73
64 | HMKIELSDNEKIIYDLLSSQHVLLSEIKDKAGLSNKAWDKSTKSLRKLGLIAVEKKDDDIYISKL | 0.247
65 | HMKIGIYPGTFDPITHGHTDIIRRSLRVFDKVVVAVAPNPSKHPLFTLTERLEMIRIVMKELEHVEVT | 0.117
66 | HMKILVTDDNIRIDKYLTTQTEYSRSTIQKMIESNNILVNNKPTKSNYILRNNDEITIDENFNEE | -0.0512
67 | HMKININEASRYELMTIGGLDAGRADMLMQYRQKREISSADELKGINGFASYDTAKLQKSFEISP | 0.00275
68 | HMKIRKAVIPAAGLGTRVLPASKSIPKEMLPIVDKPVIQYIVEEAVKAGITEILIITGRGKGAIEDHFDRS | 0.0275
